According to publication PMC4201148:

What was measured:
[1] = target: YFPc-SpvC (Salmonella enterica subsp. enterica serovar Typhimurium strain 14028s) (UniProt P0A2M9); experiment: split reporter (BiFC, NanoBiT); BiFC with YFPn and YFPc fusions co-expressed in Arabidopsis epidermal cells by particle bombardment together with p35S-mCherry; fluorescence observed 24-48 h after transformation by confocal microscopy; YFP-positive cells counted among mCherry-positive cells
[2] = target: YFPn-SpvC (Salmonella enterica subsp. enterica serovar Typhimurium strain 14028s) (UniProt P0A2M9); experiment: as above

YFPn-MPK6 (from UniProt Q39026 1-395)
percent of transformed cells with reconstituted YFP [1]: 18%

YFPc-MPK6 (from UniProt Q39026 1-395) (transformed cells)
percent of transformed cells with reconstituted YFP [2]: 34%
